Laboratory results from US20240148892A1 (DUALITY BIOLOGICS SUZHOU, published 2024).

Molecular target: T1, Human B7-H3(4Ig), His Tag (human, UniProt Q5ZPR3 29-461)
T1 construct: Bought protein; also called recombinant human B7H3 antigen; human B7-H3 protein; not shown: His tag
T1 sequence (looked up): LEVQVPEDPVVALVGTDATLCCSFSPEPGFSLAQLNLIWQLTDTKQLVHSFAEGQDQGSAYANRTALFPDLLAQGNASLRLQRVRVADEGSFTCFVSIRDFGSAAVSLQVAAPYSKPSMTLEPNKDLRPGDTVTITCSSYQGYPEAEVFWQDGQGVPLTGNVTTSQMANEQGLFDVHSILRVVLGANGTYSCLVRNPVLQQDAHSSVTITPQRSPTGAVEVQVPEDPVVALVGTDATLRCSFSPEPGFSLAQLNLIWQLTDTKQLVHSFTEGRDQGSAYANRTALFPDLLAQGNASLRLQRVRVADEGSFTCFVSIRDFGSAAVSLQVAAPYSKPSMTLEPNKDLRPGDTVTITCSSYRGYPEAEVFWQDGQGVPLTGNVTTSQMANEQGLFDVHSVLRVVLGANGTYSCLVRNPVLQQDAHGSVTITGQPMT
Experiment: ELISA, plate coated with 2 µg/mL recombinant human B7-H3 (4Ig) His, serially diluted antibody, HRP anti-human secondary antibody, OD450
Protocol: A 96-well ELISA plate was coated with 2 μg/mL recombinant human B7H3 antigen (see the table above) at 30 μL/well and kept at 4° C. overnight. The following day, the well plate was washed 3 times with PBST and then blocked with 5% skim milk for 2 h. […] The plate was then washed 3 times with PBST, and an HRP-labeled anti-human secondary antibody diluted in a 1:5000 ratio was then added at 100 μL/well and incubated for 1 h. After the incubation was complete, the plate was washed six times with PBST, and TMB (SurModics, TMBS-1000-01) was added for color development. Based on the results of the color development, the reaction was stopped by adding 2M HCl, and the plate was read by a microplate reader (Molecular Devices, SpecterMax 190) at OD450.

B1: W301088-1.145.16-z3-p1-uIgG1KV320 (antibody, V domains shown)
VH: QVQLQESGPGLVKPSQTLSLTCTVTDYSITGDYAWNWIRQHPGKGLEWIGYISYSGSTSYNPSLQSRVTISRDTSKNQFSLKLSSVTAADTAVYFCARSLGRRWYFVVWGQGTTVTVSS
VL: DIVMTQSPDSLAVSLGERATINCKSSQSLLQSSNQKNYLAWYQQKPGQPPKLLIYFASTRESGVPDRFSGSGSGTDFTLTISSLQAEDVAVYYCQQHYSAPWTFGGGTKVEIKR
notes: Humanized, PTM-removed (VL N027dQ) human IgG1 LALA kappa antibody; also called WBP301088; W301088-z3-p1
EC50 (read off the curve): ~0.2 µg/mL
